Several values for one entry are separate records, joined by “and”; a condition that tells them apart may be missing. Identical values can stand only once.
Target: T1, BTN2A1 B30.2 (Homo sapiens, UniProt Q7KYR7)
T1 chain: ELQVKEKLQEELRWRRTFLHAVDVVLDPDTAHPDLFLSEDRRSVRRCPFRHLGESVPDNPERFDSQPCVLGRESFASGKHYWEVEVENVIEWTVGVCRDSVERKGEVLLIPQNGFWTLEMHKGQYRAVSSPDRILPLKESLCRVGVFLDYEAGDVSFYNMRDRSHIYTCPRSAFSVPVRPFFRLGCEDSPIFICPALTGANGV
Test: ITC

B1: BTN3A1 B30.2 (protein)
chain: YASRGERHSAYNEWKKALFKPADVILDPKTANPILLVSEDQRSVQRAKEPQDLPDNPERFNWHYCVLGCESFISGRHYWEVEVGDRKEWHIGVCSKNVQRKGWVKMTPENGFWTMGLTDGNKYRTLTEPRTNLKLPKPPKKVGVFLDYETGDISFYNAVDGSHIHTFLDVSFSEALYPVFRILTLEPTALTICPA
modifications: DMASPP
Q: How did the Kd turn out when B1 was run?
A: 8.19 µM and 18.8 µM
